# Measurements reported in patent US20180133288A1 (ILDONG PHARM, published 2018).
# T1: semaphorin 3A (UniProt Q14563 21-771, limits assumed)
# T1 construct: also called Sema3A; Sema3A ligand
# T1 sequence (looked up): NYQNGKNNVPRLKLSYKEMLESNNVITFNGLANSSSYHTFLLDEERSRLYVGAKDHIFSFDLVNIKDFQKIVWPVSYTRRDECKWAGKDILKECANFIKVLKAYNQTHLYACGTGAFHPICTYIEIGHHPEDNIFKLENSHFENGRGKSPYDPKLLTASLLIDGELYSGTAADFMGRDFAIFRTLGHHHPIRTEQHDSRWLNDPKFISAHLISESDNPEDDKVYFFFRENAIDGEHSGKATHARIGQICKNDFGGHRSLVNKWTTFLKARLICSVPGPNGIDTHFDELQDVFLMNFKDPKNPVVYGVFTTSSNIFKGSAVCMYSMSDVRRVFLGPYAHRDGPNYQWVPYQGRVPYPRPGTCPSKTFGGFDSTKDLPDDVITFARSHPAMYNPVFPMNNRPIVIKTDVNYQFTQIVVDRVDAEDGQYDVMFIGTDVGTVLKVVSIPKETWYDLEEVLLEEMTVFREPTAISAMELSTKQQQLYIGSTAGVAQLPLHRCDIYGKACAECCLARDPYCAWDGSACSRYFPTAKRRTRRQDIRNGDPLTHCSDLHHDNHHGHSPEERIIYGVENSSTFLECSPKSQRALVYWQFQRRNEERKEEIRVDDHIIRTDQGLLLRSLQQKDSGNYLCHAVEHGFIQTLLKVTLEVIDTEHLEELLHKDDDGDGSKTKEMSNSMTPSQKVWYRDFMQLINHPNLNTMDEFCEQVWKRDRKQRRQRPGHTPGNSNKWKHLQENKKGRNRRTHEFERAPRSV
# B1: neuropilin 1 receptor (receptor, UniProt O14786 273-586, looked up)
# chain: FKCMEALGMESGEIHSDQITASSQYSTNWSAERSRLNYPENGWTPGEDSYREWIQVDLGLLRFVTAVGTQGAISKETKKKYYVKTYKIDVSSNGEDWITIKEGNKPVLFQGNTNPTDVVVAVFPKPLITRFVRIKPATWETGISMRFEVYGCKITDYPCSGMLGMVSGLISDSQITSSNQGDRNWMPENIRLVTSRSGWALPPAPHSYINEWLQIDLGEEKIVRGIIIQGGKHRENKVFMRKFKIGYSNNGSDWKMIMDDSKRKAKSFEGNNNYDTPELRTFPALSTRFIRIYPERATHGGLGLRMELLGCEVE
# notes: The construct is not defined; The same entry is used for the SPR and ELISA experiments; also called NRP1; NRP 1
# Experiments:
# [1] = target: T1, semaphorin 3A; experiment: SPR (Biacore 2000), neuropilin 1 domain fixed on CM5 chip, semaphorin 3A as analyte 1 uM to 62.5 nM
# Method: (§1) First, the affinity to a neuropilin receptor was performed on neuropilin 1 (NRP 1). Specifically, surface plasmon resonance (SPR) was performed using Biacore 2000 (GE Healthcare) in order to investigate the binding ability of TPP to the neuropilin 1 domain. Specifically, each neuropilin 1 domain was diluted in 10 mM Na-acetate buffer (pH 4.0), and fixed on CMS sensor chip (GE Healthcare, USA) at about 1,000 response units (RU). […] After the association/dissociation analysis, the CMS chip was regenerated by allowing buffer (20mM NaOH, 1M NaCl, pH 10.0) to flow at a flow rate of 30 μl/min for 1 minute.
# [2] = target: B1; experiment: SPR (Biacore 2000), neuropilin 1 domain fixed on CM5 chip, VEGF165 as analyte 80 nM to 5 nM
# Method: as §1
Kd [1] [nM],Kd [2] [nM],Binder
27.9,,B1
,3.51,"VEGF165 (ligand, UniProt P15692-4 27-191, looked up) APMAEGGGQNHHEVVKFMDVYQRSYCHPIETLVDIFQEYPDEIEYIFKPSCVPLMRCGGCCNDEGLECVPTEESNITMQIMRIKPHQGQHIGEMSFLQHNKCECRPKKDRARQENPCGPCSERRKHLFVQDPQTCKCSCKNTDSRCKARQLELNERTCRCDKPRR"
